Data: paper PMC6116569, “Activity of Vsr endonucleases encoded by Neisseria gonorrhoeae FA1090 is influenced by MutL and MutS proteins” (BMC Microbiology, 2018)

How the values were obtained:
[1] = tested on: MutS (Neisseria gonorrhoeae FA1090); experiment: EMSA; conditions: 0.75 uM protein, 1 mM ATP, 10 mM Ca2+, 10 mM Tris-HCl pH 7.5, 10 mM CaCl2, 0.1 mg/ml BSA, 0.15 uM substrate DNA, 0.032 uM competitor DNA, 20 ul, temperature not stated, 5% PAGE with …
[2] = biological target: T1, MutL protein of N. gonorrhoeae FA1090, two-hybrid fusion (mutLNgo gene in pC434, plasmid pAK26) (N. gonorrhoeae FA1090, UniProt Q5F8M6 1-658); experiment: two-hybrid; bacterial two-hybrid system (Di Lallo et al.) in E. coli R721 with lacZ as reporter: fusions to the N-terminal domains of the phage P22 and 434 repressors; an interaction represses β-galactosidase; LB with 0.1 mM IPTG, 37 °C; read-out is the ratio of Miller Units to the plasmid-less strain, a ratio below 0.5 counts as interaction; conditions: partners not purified
T1 construct: MutL of Neisseria gonorrhoeae FA1090; mutLNgo gene (1977 bp) amplified from chromosomal DNA and cloned into the SalI-BamHI sites of pC434; also called gonococcal MutL protein; source: bacterial two-hybrid fusion, expressed in E. coli R721; not shown: N-terminal domain of the repressor of phage 434 (from the vector pC434), N-terminal, kept
T1 sequence (looked up): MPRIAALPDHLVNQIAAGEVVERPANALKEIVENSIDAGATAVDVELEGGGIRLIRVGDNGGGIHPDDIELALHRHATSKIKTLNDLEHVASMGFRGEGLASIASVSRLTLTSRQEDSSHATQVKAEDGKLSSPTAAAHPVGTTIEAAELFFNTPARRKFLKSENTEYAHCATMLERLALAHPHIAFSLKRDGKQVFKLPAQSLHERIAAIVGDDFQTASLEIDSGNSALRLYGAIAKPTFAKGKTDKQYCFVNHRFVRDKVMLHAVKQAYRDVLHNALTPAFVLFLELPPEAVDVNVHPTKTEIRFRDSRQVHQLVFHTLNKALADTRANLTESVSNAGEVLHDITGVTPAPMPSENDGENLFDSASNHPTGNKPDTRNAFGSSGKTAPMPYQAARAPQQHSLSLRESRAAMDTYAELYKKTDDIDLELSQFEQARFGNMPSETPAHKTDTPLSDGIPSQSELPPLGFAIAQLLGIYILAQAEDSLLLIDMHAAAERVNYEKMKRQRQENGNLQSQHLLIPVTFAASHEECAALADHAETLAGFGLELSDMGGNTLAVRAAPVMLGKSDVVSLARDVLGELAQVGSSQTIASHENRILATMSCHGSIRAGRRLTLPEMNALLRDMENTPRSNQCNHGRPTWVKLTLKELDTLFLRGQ

[3] = biological target: V.NgoAXIV endonuclease, two-hybrid fusion (ngoAXIVV gene in pC22, plasmid pAK25) (N. gonorrhoeae FA1090); experiment: as above
[4] = biological target: V.NgoAXIII endonuclease, two-hybrid fusion (ngoAXIIIV gene in pC22, plasmid pAK24) (N. gonorrhoeae FA1090); experiment: as above
[5] = biological target: T2, MutS protein of N. gonorrhoeae FA1090, His-tagged, purified (plasmid pAK21) (N. gonorrhoeae FA1090, UniProt Q5F5J4 1-864); experiment: pull-down; protein affinity chromatography: 250 μg V.NgoAXIII, V.NgoAXIV or MutLNgo coupled to Affi-Gel 10; 250 μg His-tagged MutLNgo or MutS applied in 25 mM Tris pH 7.5, 50 mM NaCl with 2 mM ATP and 5 mM MgCl2; washed with the same buffer, eluted with 250 mM NaCl; fractions blotted with an anti-His-Tag antibody; conditions: both partners purified
T2 construct: MutS of Neisseria gonorrhoeae FA1090; mutS gene (2595 bp) amplified from chromosomal DNA with primers MutSNheI/MutSNgoR and cloned into the NheI-HindIII sites of pET28a(+); The His-Tag at the amino terminus is encoded by the vector; also called gonococcal MutS protein; source: E. coli BL21(DE3)pLys (pAK21), autoinduction, purified (Ni-NTA Agarose); not shown: His-Tag, N-terminal, kept
T2 sequence (looked up): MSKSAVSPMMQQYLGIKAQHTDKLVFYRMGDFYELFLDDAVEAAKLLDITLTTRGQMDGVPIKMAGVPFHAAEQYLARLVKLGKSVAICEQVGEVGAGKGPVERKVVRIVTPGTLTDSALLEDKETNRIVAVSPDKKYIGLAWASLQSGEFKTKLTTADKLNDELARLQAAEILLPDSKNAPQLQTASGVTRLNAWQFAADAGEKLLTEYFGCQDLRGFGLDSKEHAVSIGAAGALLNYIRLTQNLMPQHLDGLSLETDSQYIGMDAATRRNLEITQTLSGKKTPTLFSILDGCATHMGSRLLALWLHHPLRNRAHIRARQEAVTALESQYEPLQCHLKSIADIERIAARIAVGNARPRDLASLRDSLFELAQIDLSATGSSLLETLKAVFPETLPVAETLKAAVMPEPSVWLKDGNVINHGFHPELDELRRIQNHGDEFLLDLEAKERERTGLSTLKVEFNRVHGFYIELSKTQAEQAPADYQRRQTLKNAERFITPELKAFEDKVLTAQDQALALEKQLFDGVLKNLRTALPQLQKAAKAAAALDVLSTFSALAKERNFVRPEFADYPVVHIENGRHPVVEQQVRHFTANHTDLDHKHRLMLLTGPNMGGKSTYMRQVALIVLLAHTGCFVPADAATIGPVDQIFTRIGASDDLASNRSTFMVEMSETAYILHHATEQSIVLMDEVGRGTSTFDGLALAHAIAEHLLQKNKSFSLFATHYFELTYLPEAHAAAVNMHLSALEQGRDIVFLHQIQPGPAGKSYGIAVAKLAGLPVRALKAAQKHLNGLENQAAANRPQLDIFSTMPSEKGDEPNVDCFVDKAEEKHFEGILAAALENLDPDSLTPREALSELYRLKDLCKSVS

T:G mismatch substrate used with MutS (M.NgoA302P-sub or M.NgoA1175P-sub, not specified)
binding signal [1]: 90 % bound

B1: MutS protein of N. gonorrhoeae FA1090, two-hybrid fusion used with the MutLNgo fusion (plasmid pAK27) (natural protein, UniProt Q5F5J4 1-864, looked up)
chain: MSKSAVSPMMQQYLGIKAQHTDKLVFYRMGDFYELFLDDAVEAAKLLDITLTTRGQMDGVPIKMAGVPFHAAEQYLARLVKLGKSVAICEQVGEVGAGKGPVERKVVRIVTPGTLTDSALLEDKETNRIVAVSPDKKYIGLAWASLQSGEFKTKLTTADKLNDELARLQAAEILLPDSKNAPQLQTASGVTRLNAWQFAADAGEKLLTEYFGCQDLRGFGLDSKEHAVSIGAAGALLNYIRLTQNLMPQHLDGLSLETDSQYIGMDAATRRNLEITQTLSGKKTPTLFSILDGCATHMGSRLLALWLHHPLRNRAHIRARQEAVTALESQYEPLQCHLKSIADIERIAARIAVGNARPRDLASLRDSLFELAQIDLSATGSSLLETLKAVFPETLPVAETLKAAVMPEPSVWLKDGNVINHGFHPELDELRRIQNHGDEFLLDLEAKERERTGLSTLKVEFNRVHGFYIELSKTQAEQAPADYQRRQTLKNAERFITPELKAFEDKVLTAQDQALALEKQLFDGVLKNLRTALPQLQKAAKAAAALDVLSTFSALAKERNFVRPEFADYPVVHIENGRHPVVEQQVRHFTANHTDLDHKHRLMLLTGPNMGGKSTYMRQVALIVLLAHTGCFVPADAATIGPVDQIFTRIGASDDLASNRSTFMVEMSETAYILHHATEQSIVLMDEVGRGTSTFDGLALAHAIAEHLLQKNKSFSLFATHYFELTYLPEAHAAAVNMHLSALEQGRDIVFLHQIQPGPAGKSYGIAVAKLAGLPVRALKAAQKHLNGLENQAAANRPQLDIFSTMPSEKGDEPNVDCFVDKAEEKHFEGILAAALENLDPDSLTPREALSELYRLKDLCKSVS
notes: MutS of Neisseria gonorrhoeae FA1090; mutS gene (2595 bp) amplified from chromosomal DNA and cloned into the SalI-BamHI sites of pC434 and pC22; That pAK27 is the pC22 derivative is inferred: it was paired with the pC434-borne mutLNgo gene; also called gonococcal MutS protein; source: bacterial two-hybrid fusion, expressed in E. coli R721; not shown: N-terminal domain of the repressor of phage …
ratio of Miller Units (β-galactosidase activity) to the plasmid-less strain [2]: 0.39 ± 0.01

B2: MutL protein of N. gonorrhoeae FA1090, two-hybrid fusion (mutLNgo gene in pC434, plasmid pAK26) (natural protein)
chain: MPRIAALPDHLVNQIAAGEVVERPANALKEIVENSIDAGATAVDVELEGGGIRLIRVGDNGGGIHPDDIELALHRHATSKIKTLNDLEHVASMGFRGEGLASIASVSRLTLTSRQEDSSHATQVKAEDGKLSSPTAAAHPVGTTIEAAELFFNTPARRKFLKSENTEYAHCATMLERLALAHPHIAFSLKRDGKQVFKLPAQSLHERIAAIVGDDFQTASLEIDSGNSALRLYGAIAKPTFAKGKTDKQYCFVNHRFVRDKVMLHAVKQAYRDVLHNALTPAFVLFLELPPEAVDVNVHPTKTEIRFRDSRQVHQLVFHTLNKALADTRANLTESVSNAGEVLHDITGVTPAPMPSENDGENLFDSASNHPTGNKPDTRNAFGSSGKTAPMPYQAARAPQQHSLSLRESRAAMDTYAELYKKTDDIDLELSQFEQARFGNMPSETPAHKTDTPLSDGIPSQSELPPLGFAIAQLLGIYILAQAEDSLLLIDMHAAAERVNYEKMKRQRQENGNLQSQHLLIPVTFAASHEECAALADHAETLAGFGLELSDMGGNTLAVRAAPVMLGKSDVVSLARDVLGELAQVGSSQTIASHENRILATMSCHGSIRAGRRLTLPEMNALLRDMENTPRSNQCNHGRPTWVKLTLKELDTLFLRGQ
ratio of Miller Units (β-galactosidase activity) to the plasmid-less strain [3]: 0.23
ratio of Miller Units (β-galactosidase activity) to the plasmid-less strain [4]: 0.18

B3: MutL protein of N. gonorrhoeae FA1090, His-tagged, purified (plasmid pAK20) (natural protein, UniProt Q5F8M6 1-658, looked up)
chain: MPRIAALPDHLVNQIAAGEVVERPANALKEIVENSIDAGATAVDVELEGGGIRLIRVGDNGGGIHPDDIELALHRHATSKIKTLNDLEHVASMGFRGEGLASIASVSRLTLTSRQEDSSHATQVKAEDGKLSSPTAAAHPVGTTIEAAELFFNTPARRKFLKSENTEYAHCATMLERLALAHPHIAFSLKRDGKQVFKLPAQSLHERIAAIVGDDFQTASLEIDSGNSALRLYGAIAKPTFAKGKTDKQYCFVNHRFVRDKVMLHAVKQAYRDVLHNALTPAFVLFLELPPEAVDVNVHPTKTEIRFRDSRQVHQLVFHTLNKALADTRANLTESVSNAGEVLHDITGVTPAPMPSENDGENLFDSASNHPTGNKPDTRNAFGSSGKTAPMPYQAARAPQQHSLSLRESRAAMDTYAELYKKTDDIDLELSQFEQARFGNMPSETPAHKTDTPLSDGIPSQSELPPLGFAIAQLLGIYILAQAEDSLLLIDMHAAAERVNYEKMKRQRQENGNLQSQHLLIPVTFAASHEECAALADHAETLAGFGLELSDMGGNTLAVRAAPVMLGKSDVVSLARDVLGELAQVGSSQTIASHENRILATMSCHGSIRAGRRLTLPEMNALLRDMENTPRSNQCNHGRPTWVKLTLKELDTLFLRGQ
notes: MutL of Neisseria gonorrhoeae FA1090; mutLNgo gene (1977 bp) amplified from chromosomal DNA with primers MutLfor/MutLNgoR and cloned into the NheI-HindIII sites of pET28a(+); The His-Tag at the amino terminus is encoded by the vector; also called MutLNgo; gonococcal MutL protein; source: E. coli BL21(DE3)pLys (pAK20), autoinduction, purified (Ni-NTA Agarose); not shown: His-Tag, N-terminal, kept
binding result [5]: binds
